According to patent publication US20220135665A1:

Biological target: recombinant human VEGF165 protein (human) (UniProt P15692)
Assay: cell-based or functional assay

Sequence of EYLEA (Aflibercept) (Fc fusion) (chain): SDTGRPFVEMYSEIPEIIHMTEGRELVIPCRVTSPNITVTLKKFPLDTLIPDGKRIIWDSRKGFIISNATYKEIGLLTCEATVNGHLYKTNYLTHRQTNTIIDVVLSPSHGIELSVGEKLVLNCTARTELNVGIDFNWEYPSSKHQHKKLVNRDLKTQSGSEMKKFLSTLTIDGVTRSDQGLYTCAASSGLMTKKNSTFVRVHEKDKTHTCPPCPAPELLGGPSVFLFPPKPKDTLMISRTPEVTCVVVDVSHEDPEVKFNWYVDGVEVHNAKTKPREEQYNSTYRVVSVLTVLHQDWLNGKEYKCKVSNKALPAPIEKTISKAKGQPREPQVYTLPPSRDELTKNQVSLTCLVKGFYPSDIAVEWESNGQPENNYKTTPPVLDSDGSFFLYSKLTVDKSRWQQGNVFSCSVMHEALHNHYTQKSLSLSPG
Sequence of Conbercept (Fc fusion) (chain): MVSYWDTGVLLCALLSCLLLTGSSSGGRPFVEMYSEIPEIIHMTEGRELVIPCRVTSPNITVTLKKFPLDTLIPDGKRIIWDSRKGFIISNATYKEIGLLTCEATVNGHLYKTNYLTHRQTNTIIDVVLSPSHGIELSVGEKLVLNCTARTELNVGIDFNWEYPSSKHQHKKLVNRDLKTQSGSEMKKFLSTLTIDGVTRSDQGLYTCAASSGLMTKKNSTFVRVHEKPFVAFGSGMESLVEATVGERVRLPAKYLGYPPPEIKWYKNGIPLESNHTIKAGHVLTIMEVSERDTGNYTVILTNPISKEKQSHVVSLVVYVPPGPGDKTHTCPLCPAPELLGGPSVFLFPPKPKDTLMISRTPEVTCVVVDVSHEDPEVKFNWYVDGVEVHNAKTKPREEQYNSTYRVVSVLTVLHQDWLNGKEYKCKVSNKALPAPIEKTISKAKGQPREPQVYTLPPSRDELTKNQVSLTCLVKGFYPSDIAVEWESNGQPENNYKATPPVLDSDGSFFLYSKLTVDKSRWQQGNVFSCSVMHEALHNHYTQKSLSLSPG

Row | Substance | EC50(nM), neutralization of HUVEC proliferation, VEGF165 at 10 ng/mL [nM] | EC50(nM), neutralization of HUVEC proliferation, VEGF165 at 100 ng/mL [nM] | EC50(nM), neutralization of HUVEC proliferation, VEGF165 at 1000 ng/mL [nM] | Maximum neutralization rate (%), VEGF165 at 10 ng/mL [%] | Maximum neutralization rate (%), VEGF165 at 100 ng/mL [%] | Maximum neutralization rate (%), VEGF165 at 1000 ng/mL [%]
1 | Conbercept (Fc fusion) | 0.18 | 2.86 | 29 | 102 | 99.7 | 108
2 | EYLEA (Aflibercept) (Fc fusion) | 0.15 | 2.56 | 32.4 | 92.7 | 89.6 | 76.7
